For two substances, Km results are on record in PMC10992437, “Engineering a norcoclaurine synthase for one-step synthesis of (S)-1-aryl-tetrahydroisoquinolines” (Bioresources and Bioprocessing, 2023).

In one data set the test system is O=Cc1ccccc1. Put plainly: purified protein. In kind it is biochemical, Thalictrum flavum. The note with it: co-substrate dopamine (concentration not stated), aldehyde 0.5-50 mM, general assay: HEPES pH 7.5, 20% DMSO, 5 mM ascorbic acid.
For a further data set, the system named is O=Cc1ccc(-c2ccccc2)cc1. Put plainly: purified protein. It counts as biochemical, Thalictrum flavum. Conditions: co-substrate dopamine (concentration not stated), aldehyde 0.5-50 mM, general assay: HEPES pH 7.5, 20% DMSO, 5 mM ascorbic acid.

For orientation: Km means the concentration of substrate that gives half-maximal velocity. Regarding “TfNCS (norcoclaurine synthase) (Thalictrum flavum subsp. glaucum)”, the Km was found to be 22.3 ± 6.7 mM in the data set with O=Cc1ccccc1 and 15.0 ± 4.6 mM in the data set with O=Cc1ccc(-c2ccccc2)cc1.

As to “TfNCS (norcoclaurine synthase) (Thalictrum flavum subsp. glaucum; L68T/M97V)”, the Km amounted to 20.1 ± 5.3 mM in the data set with O=Cc1ccccc1 and 14.6 ± 5.1 mM in the data set with O=Cc1ccc(-c2ccccc2)cc1.
